The values that follow come from PMC10050189, “Alpha 2-macroglobulin acts as a clearance factor in the lysosomal degradation of extracellular misfolded proteins” (Scientific Reports, 2023).

B1: α2M–mCherry–sfGFP–His (natural protein, human (cDNA from HepG2), UniProt P01023 24-1474, looked up)
chain: SVSGKPQYMVLVPSLLHTETTEKGCVLLSYLNETVTVSASLESVRGNRSLFTDLEAENDVLHCVAFAVPKSSSNEEVMFLTVQVKGPTQEFKKRTTVMVKNEDSLVFVQTDKSIYKPGQTVKFRVVSMDENFHPLNELIPLVYIQDPKGNRIAQWQSFQLEGGLKQFSFPLSSEPFQGSYKVVVQKKSGGRTEHPFTVEEFVLPKFEVQVTVPKIITILEEEMNVSVCGLYTYGKPVPGHVTVSICRKYSDASDCHGEDSQAFCEKFSGQLNSHGCFYQQVKTKVFQLKRKEYEMKLHTEAQIQEEGTVVELTGRQSSEITRTITKLSFVKVDSHFRQGIPFFGQVRLVDGKGVPIPNKVIFIRGNEANYYSNATTDEHGLVQFSINTTNVMGTSLTVRVNYKDRSPCYGYQWVSEEHEEAHHTAYLVFSPSKSFVHLEPMSHELPCGHTQTVQAHYILNGGTLLGLKKLSFYYLIMAKGGIVRTGTHGLLVKQEDMKGHFSISIPVKSDIAPVARLLIYAVLPTGDVIGDSAKYDVENCLANKVDLSFSPSQSLPASHAHLRVTAAPQSVCALRAVDQSVLLMKPDAELSASSVYNLLPEKDLTGFPGPLNDQDNEDCINRHNVYINGITYTPVSSTNEKDMYSFLEDMGLKAFTNSKIRKPKMCPQLQQYEMHGPEGLRVGFYESDVMGRGHARLVHVEEPHTETVRKYFPETWIWDLVVVNSAGVAEVGVTVPDTITEWKAGAFCLSEDAGLGISSTASLRAFQPFFVELTMPYSVIRGEAFTLKATVLNYLPKCIRVSVQLEASPAFLAVPVEKEQAPHCICANGRQTVSWAVTPKSLGNVNFTVSAEALESQELCGTEVPSVPEHGRKDTVIKPLLVEPEGLEKETTFNSLLCPSGGEVSEELSLKLPPNVVEESARASVSVLGDILGSAMQNTQNLLQMPYGCGEQNMVLFAPNIYVLDYLNETQQLTPEIKSKAIGYLNTGYQRQLNYKHYDGSYSTFGERYGRNQGNTWLTAFVLKTFAQARAYIFIDEAHITQALIWLSQRQKDNGCFRSSGSLLNNAIKGGVEDEVTLSAYITIALLEIPLTVTHPVVRNALFCLESAWKTAQEGDHGSHVYTKALLAYAFALAGNQDKRKEVLKSLNEEAVKKDNSVHWERPQKPKAPVGHFYEPQAPSAEVEMTSYVLLAYLTAQPAPTSEDLTSATNIVKWITKQQNAQGGFSSTQDTVVALHALSKYGAATFTRTGKAAQVTIQSSGTFSSKFQVDNNNRLLLQQVSLPELPGEYSMKVTGEGCVYLQTSLKYNILPEKEEFPFALGVQTLPQTCDEPKAHTSFQISLSVSYTGSRSASNMAIVDVKMVSGFIPLKPTVKMLERSNHVSRTEVSSNHVLIYLDKVSNQTLSLFFTVLQDVPVRDLKPAIVKVYDYYETDEFAIAEYNAPCSKDLGNA
notes: alpha 2-macroglobulin (α2M), cDNA amplified from HepG2 total cDNA; Tetramer with an intact thiol ester by native-PAGE and heat fragmentation; also called α2M–RG; α2M–RFP–GFP–His; source: purified from conditioned medium (Ni–NTA); not shown: mCherry, C-terminal, kept; sfGFP, C-terminal, kept
B2: His–ALFA–3C–ESD (natural protein, human, UniProt P10768 1-282, looked up)
chain: MALKQISSNKCFGGLQKVFEHDSVELNCKMKFAVYLPPKAETGKCPALYWLSGLTCTEQNFISKSGYHQSASEHGLVVIAPDTSPRGCNIKGEDESWDFGTGAGFYVDATEDPWKTNYRMYSYVTEELPQLINANFPVDPQRMSIFGHSMGGHGALICALKNPGKYKSVSAFAPICNPVLCPWGKKAFSGYLGTDQSKWKAYDATHLVKSYPGSQLDILIDQGKDDQFLLDGQLLPDNFIAACTEKKIPVVFRLQEGYDHSYYFIATFITDHIRHHAKYLNA
notes: S-formylglutathione hydrolase (ESD), cDNA amplified from HEK293 total cDNA; A 3C protease site stands between the tags and the protein; Heat-stressed at 50 °C for 1 h together with the chaperone; also called recombinant ESD; source: E. coli BL21(DE3) LOBSTR, purified (HisPur Cobalt Resin)
B3: His–ALFA–3C–ALDH1A1 (natural protein, human, UniProt P00352 1-501, looked up)
chain: MSSSGTPDLPVLLTDLKIQYTKIFINNEWHDSVSGKKFPVFNPATEEELCQVEEGDKEDVDKAVKAARQAFQIGSPWRTMDASERGRLLYKLADLIERDRLLLATMESMNGGKLYSNAYLNDLAGCIKTLRYCAGWADKIQGRTIPIDGNFFTYTRHEPIGVCGQIIPWNFPLVMLIWKIGPALSCGNTVVVKPAEQTPLTALHVASLIKEAGFPPGVVNIVPGYGPTAGAAISSHMDIDKVAFTGSTEVGKLIKEAAGKSNLKRVTLELGGKSPCIVLADADLDNAVEFAHHGVFYHQGQCCIAASRIFVEESIYDEFVRRSVERAKKYILGNPLTPGVTQGPQIDKEQYDKILDLIESGKKEGAKLECGGGPWGNKGYFVQPTVFSNVTDEMRIAKEEIFGPVQQIMKFKSLDDVIKRANNTFYGLSAGVFTKDIDKAITISSALQAGTVWVNCYGVVSAQCPFGGFKMSGNGRELGEYGFHEYTEVKTVTVKISQKNS
notes: retinal dehydrogenase 1 (ALDH1A1), cDNA amplified from HEK293 total cDNA; A 3C protease site stands between the tags and the protein; Heat-stressed at 50 °C for 1 h together with the chaperone; also called recombinant ALDH1A1; source: E. coli BL21(DE3) LOBSTR, purified (HisPur Cobalt Resin)

Data set [1] deals with the molecule itself. In words: native gel or EMSA; Native-PAGE of purified α2M–RG on NuPAGE 3 to 8% Tris–acetate gels, Tris–glycine running buffer pH 8.3, with or without methylamine; migrated to ~920 kDa.
The data set “α2M–mCherry–sfGFP–His” concerns the target B1. Put plainly: co-IP; purified α2M–RG (0.1 μM) mixed with purified substrate, pre-incubated at 50 °C (heat stress) or 4 °C for 1 h; anti-GFP (GFP-nanobody) sepharose 2 h at 4 °C, washed four times with PBS. The settings on record: both partners purified.

On to B1, for which the “stoichiometry N” value in data set [1] is 4. Regarding B2, the binding result with α2M–mCherry–sfGFP–His is “binds”. Still for that read-out and setting: as for B3, the entry is “binds”.
